Results reported in patent US20120134997A1 (COMPUGEN, published 2012).

Molecular target: T1, B7H4-Ig (R&D Systems, Inc. cat.#4206-B7) (mouse, UniProt Q7TSP5 29-256)
T1 construct: Bought reagent; also called Recombinant mouse B7-H4 protein (R&D Systems, CAT #4206-B7); not shown: Ig part of the bought fusion; not described
T1 sequence (looked up): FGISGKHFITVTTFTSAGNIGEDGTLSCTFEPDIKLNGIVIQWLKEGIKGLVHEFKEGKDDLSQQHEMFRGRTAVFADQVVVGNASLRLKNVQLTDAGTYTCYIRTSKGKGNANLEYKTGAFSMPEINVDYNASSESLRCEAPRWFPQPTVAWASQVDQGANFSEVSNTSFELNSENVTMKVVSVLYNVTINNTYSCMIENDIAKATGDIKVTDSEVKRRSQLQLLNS
Test: BIAcore 3000 surface plasmon resonance; Fc fused AI216611 ECD (SEQ ID NO:104) immobilised directly on a CM5 chip (400-500 RU), B7H4-Ig injected at 5 and 10 µM, empty flow cell subtracted
Protocol: Solution containing two different concentrations of B7H4-Ig (5 and 10 micro molar) was injected. As control, the solutions were also injected onto an empty flow cell with no ligand immobilized.
Data was analyzed using BIAevaluation software ([…].). A zero baseline level was obtained by subtracting the background responses from injection of the analytes through a control flow cell with no ligand immobilized.

binding result: binds
B1: AI216611_T0_P0_ECD_mFc (Fc fused AI216611 ECD, SEQ ID NO:104) (Fc fusion)
chain: LQSQGVSLYIPQATINATVKEDILLSVEYSCHGVPTIEWTYSSNWGTQKIVEWKPGTQANISQSHKDRVCTFDNGSIQLFSVGVRDSGYYVITVTERLGSSQFGTIVLHVSEILYEDGSENLYFQGSGEPRGPTIKPCPPCKCPAPNLLGGPSVFIFPPKIKDVLMISLSPIVTCVVVDVSEDDPDVQISWFVNNVEVHTAQTQTHREDYNSTLRVVSALPIQHQDWMSGKEFKCKVNNKDLPAPIERTISKPKGSVRAPQVYVLPPPEEEMTKKQVTLTCMVTDFMPEDIYVEWTNNGKTELNYKNTEPVLDSDGSYFMYSKLRVEKKNWVERNSYSCSVVHEGLHNHHTTKSFSRTPGK
notes: also called AI216611-ECD-Fc
